{"source": "patent US20240199757A1", "biological_target": "T1, human NT5E expressed on MDA-MB-231 cells (human) (UniProt P21589)", "T1 sequence (looked up)": "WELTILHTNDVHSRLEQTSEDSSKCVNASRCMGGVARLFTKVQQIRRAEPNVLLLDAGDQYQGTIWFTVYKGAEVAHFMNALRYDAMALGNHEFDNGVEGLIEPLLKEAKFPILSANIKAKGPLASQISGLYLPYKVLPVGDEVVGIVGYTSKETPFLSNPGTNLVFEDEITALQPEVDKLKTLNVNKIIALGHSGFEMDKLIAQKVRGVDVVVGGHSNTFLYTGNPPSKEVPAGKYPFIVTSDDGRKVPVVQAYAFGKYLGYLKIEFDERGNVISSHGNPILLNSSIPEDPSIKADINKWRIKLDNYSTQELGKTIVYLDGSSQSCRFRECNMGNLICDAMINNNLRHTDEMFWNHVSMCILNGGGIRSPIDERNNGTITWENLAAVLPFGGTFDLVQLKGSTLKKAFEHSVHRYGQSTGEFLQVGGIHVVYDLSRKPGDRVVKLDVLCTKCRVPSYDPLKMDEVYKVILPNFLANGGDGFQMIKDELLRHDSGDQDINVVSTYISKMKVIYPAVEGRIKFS", "test": "cell-based or functional assay"}
{"substance": "BMS986179 IgG (antibody)", "values": [{"measurement": "IC50 of NT5E activity on MDA-MB-231 cells, no ATP", "result": 0.6, "unit": "nM"}, {"measurement": "IC50 of NT5E activity on MDA-MB-231 cells, with ATP", "result": 1.1, "unit": "nM"}, {"measurement": "maximal inhibition of NT5E on MDA-MB-231 cells", "result": 70, "unit": "%"}]}
